Paper PMC9285637 (Molecular cancer research : MCR, 2019)
Each block holds one binder with its values, some of them ahead of it.

How the values were obtained:
[1] = molecular target: T1, mCherry-LacI-PALB2^WD40 (UniProt Q86YC2 841-1186); test: LacO/LacI tethering recruitment assay
T1 sequence (looked up): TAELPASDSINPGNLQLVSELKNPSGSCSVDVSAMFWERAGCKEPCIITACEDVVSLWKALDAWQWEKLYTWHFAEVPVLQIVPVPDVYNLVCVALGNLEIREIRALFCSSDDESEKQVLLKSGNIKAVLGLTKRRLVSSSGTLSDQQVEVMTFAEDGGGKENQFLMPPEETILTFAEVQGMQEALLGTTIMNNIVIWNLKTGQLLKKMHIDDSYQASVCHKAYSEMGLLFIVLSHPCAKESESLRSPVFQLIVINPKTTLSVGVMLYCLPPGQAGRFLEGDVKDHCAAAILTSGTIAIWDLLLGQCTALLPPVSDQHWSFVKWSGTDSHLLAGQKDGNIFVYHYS

[2] = molecular target: T2, mCherry-LacI-PALB2^FL (UniProt Q86YC2 1-1186); test: LacO/LacI tethering recruitment assay
T2 sequence (looked up): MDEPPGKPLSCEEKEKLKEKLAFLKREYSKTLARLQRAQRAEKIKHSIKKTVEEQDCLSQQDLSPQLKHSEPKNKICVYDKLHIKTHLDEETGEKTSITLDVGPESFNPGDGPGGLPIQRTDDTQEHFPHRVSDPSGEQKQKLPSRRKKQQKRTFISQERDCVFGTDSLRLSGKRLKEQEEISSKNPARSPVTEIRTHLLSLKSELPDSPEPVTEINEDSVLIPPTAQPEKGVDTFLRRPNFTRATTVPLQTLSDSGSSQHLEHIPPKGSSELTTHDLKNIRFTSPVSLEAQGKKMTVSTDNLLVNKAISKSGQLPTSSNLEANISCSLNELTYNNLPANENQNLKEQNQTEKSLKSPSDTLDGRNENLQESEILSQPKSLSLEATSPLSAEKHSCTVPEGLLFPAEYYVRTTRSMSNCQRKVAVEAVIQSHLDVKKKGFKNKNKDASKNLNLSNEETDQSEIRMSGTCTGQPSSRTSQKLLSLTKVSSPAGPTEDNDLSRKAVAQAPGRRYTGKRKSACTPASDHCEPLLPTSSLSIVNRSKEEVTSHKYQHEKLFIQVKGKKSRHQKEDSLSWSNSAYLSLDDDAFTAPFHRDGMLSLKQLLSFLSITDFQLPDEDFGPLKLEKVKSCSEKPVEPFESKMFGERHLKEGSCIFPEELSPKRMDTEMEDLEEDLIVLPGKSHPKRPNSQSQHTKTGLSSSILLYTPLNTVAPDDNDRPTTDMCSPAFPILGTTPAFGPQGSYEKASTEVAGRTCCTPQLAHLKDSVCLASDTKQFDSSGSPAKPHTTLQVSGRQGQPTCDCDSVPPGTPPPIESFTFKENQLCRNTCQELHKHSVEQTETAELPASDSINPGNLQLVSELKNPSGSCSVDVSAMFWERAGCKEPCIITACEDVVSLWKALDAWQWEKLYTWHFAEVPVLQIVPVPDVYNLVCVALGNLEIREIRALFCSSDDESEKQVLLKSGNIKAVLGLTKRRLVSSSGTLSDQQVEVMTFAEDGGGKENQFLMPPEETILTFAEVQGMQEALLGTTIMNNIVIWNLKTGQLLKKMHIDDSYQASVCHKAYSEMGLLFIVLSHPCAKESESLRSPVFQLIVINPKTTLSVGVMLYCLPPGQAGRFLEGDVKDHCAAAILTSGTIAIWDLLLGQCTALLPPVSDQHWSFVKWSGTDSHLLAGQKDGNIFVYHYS

percent of cells with recruitment of GFP-USP22 to the LacO array [1]: 55%
B1: GFP-USP22^DUB (domain or fragment, human, UniProt Q9UPT9 164-525, looked up)
chain: RRKITSNCTIGLRGLINLGNTCFMNCIVQALTHTPLLRDFFLSDRHRCEMQSPSSCLVCEMSSLFQEFYSGHRSPHIPYKLLHLVWTHARHLAGYEQQDAHEFLIAALDVLHRHCKGDDNGKKANNPNHCNCIIDQIFTGGLQSDVTCQVCHGVSTTIDPFWDISLDLPGSSTPFWPLSPGSEGNVVNGESHVSGTTTLTDCLRRFTRPEHLGSSAKIKCSGCHSYQESTKQLTMKKLPIVACFHLKRFEHSAKLRRKITTYVSFPLELDMTPFMASSKESRMNGQYQQPTDSLNNDNKYSLFAVVNHQGTLESGHYTSFIRQHKDQWFKCDDAIITKASIKDVLDSEGYLLFYHKQFLEYE

percent of cells with recruitment of GFP-USP22 to the LacO array [1]: 37.5%
percent of cells with recruitment of GFP-USP22 to the LacO array [2]: 35%
B2: GFP-USP22 (enzyme, human, UniProt Q9UPT9 1-525, looked up)
chain: MVSRPEPEGEAMDAELAVAPPGCSHLGSFKVDNWKQNLRAIYQCFVWSGTAEARKRKAKSCICHVCGVHLNRLHSCLYCVFFGCFTKKHIHEHAKAKRHNLAIDLMYGGIYCFLCQDYIYDKDMEIIAKEEQRKAWKMQGVGEKFSTWEPTKRELELLKHNPKRRKITSNCTIGLRGLINLGNTCFMNCIVQALTHTPLLRDFFLSDRHRCEMQSPSSCLVCEMSSLFQEFYSGHRSPHIPYKLLHLVWTHARHLAGYEQQDAHEFLIAALDVLHRHCKGDDNGKKANNPNHCNCIIDQIFTGGLQSDVTCQVCHGVSTTIDPFWDISLDLPGSSTPFWPLSPGSEGNVVNGESHVSGTTTLTDCLRRFTRPEHLGSSAKIKCSGCHSYQESTKQLTMKKLPIVACFHLKRFEHSAKLRRKITTYVSFPLELDMTPFMASSKESRMNGQYQQPTDSLNNDNKYSLFAVVNHQGTLESGHYTSFIRQHKDQWFKCDDAIITKASIKDVLDSEGYLLFYHKQFLEYE
